{
  "source": "paper doi:10.1101/2021.10.29.466484",
  "about": "“Clamping of DNA shuts the condensin neck gate” (bioRxiv, 2021)",
  "binders": {"B1": {"name": "Brn1 (natural protein, S. cerevisiae)", "chain": "MTTQLRYENNDDDERVEYNLFTNRSTMMANFEEWIKMATDNKINSRNSWNFALIDYFYDLDVLKDGENNINFQKASATLDGCIKIYSSRVDSVTTETGKLLSGLAQRKTNGASNGDDSNGGNGEGLGGDSDEANIEIDPLTGMPISNDPDVNNTRRRVYNRVLETTLVEFETIKMKELDQELIIDPLFKKALVDFDEGGAKSLLLNTLNIDNTARVIFDASIKDTQNVGQGKLQRKEEELIERDSLVDDENEPSQSLISTRNDSTVNDSVISAPSMEDEILSLGMDFIKFDQIAVCEISGSIEQLRNVVEDINQAKDFIENVNNRFDNFLTEEELQAAVPDNAEDDSDGFDMGMQQELCYPDENHDNTSHDEQDDDNVNSTTGSIFEKDLMAYFDENLNRNWRGREHWKVRNFKKANLVNKESDLLEETRTTIGDTTDKNTTDDKSMDTKKKHKQKKVLEIDFFKTDDSFEDKVFASKGRTKIDMPIKNRKNDTHYLLPDDFHFSTDRITRLFIKPGQKMSLFSHRKHTRGDVSSGLFEKSTVSANHSNNDIPTIADEHFWADNYERKEQEEKEKEQSKEVGDVVGGALDNPFEDDMDGVDFNQAFEGTDDNEEASVKLDLQDDEDHKFPIRENKVTYSRVSKKVDVRRLKKNVWRSINNLIQEHDSRKNREQSSNDSETHTEDESTKELKFSDIIQGISKMYSDDTLKDISTSFCFICLLHLANEHGLQITHTENYNDLIVNYEDLATTQAAS", "notes": "Brn1, kleisin subunit of budding yeast (S. cerevisiae) condensin, wild type; also called kleisin Brn1; BRN1-HA3-His12"}},
  "key": {"Smc2": {"target": "T1, Smc2 (S. cerevisiae, UniProt P38989 1-1170)", "T1 construct": "Smc2, SMC subunit of budding yeast (S. cerevisiae) condensin, wild type; Expressed from pGAL10-SMC2 together with the other subunits; Only the head domain and proximal coiled coil are resolved in the maps", "T1 sequence": "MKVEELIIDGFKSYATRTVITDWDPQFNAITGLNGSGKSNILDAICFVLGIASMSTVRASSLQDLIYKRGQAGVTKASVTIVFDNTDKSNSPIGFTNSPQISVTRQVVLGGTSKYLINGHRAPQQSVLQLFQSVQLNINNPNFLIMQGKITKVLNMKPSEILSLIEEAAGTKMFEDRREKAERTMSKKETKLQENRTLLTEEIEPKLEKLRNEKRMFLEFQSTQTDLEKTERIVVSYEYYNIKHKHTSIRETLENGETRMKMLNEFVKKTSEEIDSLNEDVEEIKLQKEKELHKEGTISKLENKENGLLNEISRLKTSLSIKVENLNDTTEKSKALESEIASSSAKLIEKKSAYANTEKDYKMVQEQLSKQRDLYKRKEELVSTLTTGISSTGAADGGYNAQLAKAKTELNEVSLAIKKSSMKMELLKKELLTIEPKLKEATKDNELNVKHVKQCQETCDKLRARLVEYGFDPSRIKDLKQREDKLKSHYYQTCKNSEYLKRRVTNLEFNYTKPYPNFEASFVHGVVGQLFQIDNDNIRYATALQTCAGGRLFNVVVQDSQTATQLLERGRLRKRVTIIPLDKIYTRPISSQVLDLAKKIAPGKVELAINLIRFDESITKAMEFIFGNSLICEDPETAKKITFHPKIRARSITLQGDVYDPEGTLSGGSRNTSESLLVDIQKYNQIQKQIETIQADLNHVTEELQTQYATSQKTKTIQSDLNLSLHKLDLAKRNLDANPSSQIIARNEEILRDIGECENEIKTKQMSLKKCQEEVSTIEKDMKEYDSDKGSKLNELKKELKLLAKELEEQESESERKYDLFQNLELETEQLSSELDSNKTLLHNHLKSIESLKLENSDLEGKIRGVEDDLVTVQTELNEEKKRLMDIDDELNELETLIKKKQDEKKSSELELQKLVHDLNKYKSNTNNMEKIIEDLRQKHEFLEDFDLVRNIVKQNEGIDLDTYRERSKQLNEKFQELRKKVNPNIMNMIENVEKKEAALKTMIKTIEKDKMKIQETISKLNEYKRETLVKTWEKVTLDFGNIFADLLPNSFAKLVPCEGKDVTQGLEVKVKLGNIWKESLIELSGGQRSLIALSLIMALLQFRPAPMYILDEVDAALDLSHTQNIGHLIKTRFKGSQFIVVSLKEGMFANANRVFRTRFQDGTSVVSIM", "experiment": "cryo-EM structure; condensin pentamer with relaxed circular DNA, ADP and BeF3; VPP and non-VPP datasets merged; maps at 8.75 and 8.95 Å", "conditions": "both partners purified"}, "Ycs4": {"target": "T2, Ycs4 (S. cerevisiae, UniProt Q06156 1-1176)", "T2 construct": "Ycs4, HAWK subunit of budding yeast (S. cerevisiae) condensin, wild type", "T2 sequence": "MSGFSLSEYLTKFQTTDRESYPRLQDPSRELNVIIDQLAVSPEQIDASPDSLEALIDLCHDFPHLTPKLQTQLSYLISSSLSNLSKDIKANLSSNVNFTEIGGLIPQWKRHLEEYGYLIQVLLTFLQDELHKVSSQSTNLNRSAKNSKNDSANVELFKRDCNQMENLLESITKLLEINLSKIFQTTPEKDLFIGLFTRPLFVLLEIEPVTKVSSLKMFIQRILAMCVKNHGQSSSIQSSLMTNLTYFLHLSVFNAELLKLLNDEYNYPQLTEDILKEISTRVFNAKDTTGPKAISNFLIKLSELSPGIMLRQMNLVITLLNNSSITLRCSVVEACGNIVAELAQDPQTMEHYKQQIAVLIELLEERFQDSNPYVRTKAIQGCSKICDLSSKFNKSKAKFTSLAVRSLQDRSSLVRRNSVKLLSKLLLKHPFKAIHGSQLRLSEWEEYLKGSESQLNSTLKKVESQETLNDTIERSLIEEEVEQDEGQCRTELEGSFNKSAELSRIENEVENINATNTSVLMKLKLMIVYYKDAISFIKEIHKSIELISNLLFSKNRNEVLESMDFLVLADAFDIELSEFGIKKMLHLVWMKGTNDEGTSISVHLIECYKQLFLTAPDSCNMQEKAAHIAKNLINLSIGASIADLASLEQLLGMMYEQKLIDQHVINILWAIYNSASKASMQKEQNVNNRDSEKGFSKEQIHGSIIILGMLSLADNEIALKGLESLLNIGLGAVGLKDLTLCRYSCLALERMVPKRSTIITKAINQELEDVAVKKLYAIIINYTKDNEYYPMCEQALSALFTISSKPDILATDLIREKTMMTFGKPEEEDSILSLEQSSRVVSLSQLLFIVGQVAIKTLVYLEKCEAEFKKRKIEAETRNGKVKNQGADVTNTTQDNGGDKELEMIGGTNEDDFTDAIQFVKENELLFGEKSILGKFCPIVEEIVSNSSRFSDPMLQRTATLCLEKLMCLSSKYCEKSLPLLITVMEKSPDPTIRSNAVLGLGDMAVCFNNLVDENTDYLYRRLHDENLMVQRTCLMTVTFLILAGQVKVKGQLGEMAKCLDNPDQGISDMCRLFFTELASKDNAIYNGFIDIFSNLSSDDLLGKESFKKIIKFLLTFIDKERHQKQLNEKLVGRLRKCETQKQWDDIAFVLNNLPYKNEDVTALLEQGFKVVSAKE", "experiment": "cryo-EM structure; condensin pentamer with relaxed circular DNA, ADP and BeF3; VPP and non-VPP datasets merged; maps at 8.75 and 8.95 Å", "conditions": "both partners purified"}},
  "data": [
    {"binder": "B1", "values": [
      {"measurement": "binding result", "setting": "Smc2", "value": "binds"},
      {"measurement": "binding result", "setting": "Ycs4", "value": "binds"}
    ]}
  ]
}
